Test results reported in paper PMC6170785, “Synthetic Fragments of Receptor for Advanced Glycation End Products Bind Beta-Amyloid 1–40 and Protect Primary Brain Cells From Beta-Amyloid Toxicity” (Frontiers in Neuroscience, 2018).

How the values were obtained:
Aβ 1–40 = target: T1, Aβ 1–40 (Homo sapiens, UniProt P05067); test: Fluorescent titration of RAGE fragments by Aβ 1–40; type: binding; details: tryptophan fluorescence titration with Aβ 1–40; 25 mM Tris-HCl, 100 mM NaCl, 5 mM EDTA, pH 7.5; peptide 0.5 μM (P1) or 2 μM (P2–P6); excitation 285 nm, emission 355 nm; mean ± SEM of three independent measurements
T1 construct: Lyophilized synthetic Aβ 1–40 was dissolved in mili-Q water; host or cells: chemical synthesis (synthetic peptide)
T1 sequence (P05067 672-711 limits assumed): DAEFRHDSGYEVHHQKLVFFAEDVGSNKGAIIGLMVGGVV
Procedure: The fluorescence titrations of synthetic peptides were performed using Fluoromax 3 fluorescence spectrophotometer (Horiba Jobin Yvon, Germany). Titrations were conducted in a quartz cuvette with 2 ml of titration buffer (25 mM Tris-HCl, 100 mM NaCl, 5 mM EDTA, pH 7.5). The concentration of peptide (60–76) which has two tryptophan residues was 0.5 μM. Whereas peptides (60–70), (60–62), (60–65), (62–73), and (65–76) have only one Trp residue, their concentration was 2 μM to enhance the signal. Lyophilized synthetic Aβ 1–40 was dissolved in mili-Q water at a concentration of 1 mM. […]
The fluorescence spectrum was measured after each addition of beta-amyloid. […] Emission was detected in the range of […]. The maximum of fluorescence intensity was found at 355 nm. […]
where [S] – concentration of Aβ 1–40 in cuvette; ΔF is the difference of intensity between experiment in absence of Aβ 1–40 and experiment with beta-amyloid at the certain concentration and ΔFmax is the maximal fluorescence change ([Huang et al., 2016]). […]
The dissociation constant Kd was found by multiplication of the calculated slope factor and ΔFmax. For each peptide the dissociation constant was measured three times independently. Dissociation constants were expressed as mean ± SEM. P-values were measured by Mann-Whitney test to estimate the differences between each of obtained dissociation constants.

[1] = tested on: primary cultures of neurons and astrocytes derived from hippocampal and cortical areas of rats' brains; test: Caspase 3 activity assay (NucView 488) after Aβ 1–42 treatment; type: cell-based, rat; details: pre-incubation 3 h with 10 μM peptide, then 1 h with 5 μM Aβ 1–42, NucView 488, confocal, mean (SEM) of N = 6–28 fields
Procedure: Mixed cultures of hippocampal and cortical neurons and glial cells were prepared as described previously ([Vaarmann et al., 2010]) with modifications, from Sprague-Dawley rat pups 2–4 days post-partum (UCL breeding colony). […] Hippocampi and cortex were removed into ice-cold PBS (Ca^2+, Mg^2+-free, Invitrogen, Paisley, United Kingdom). The tissue was minced and trypsinised (0.25% for 15 min at 37°C), triturated and plated on Poly-D-lysine-coated coverslips and cultured in Neurobasal A medium (Invitrogen, Paisley, United Kingdom) supplemented with B-27 (Invitrogen, Paisley, United Kingdom) and 2 mM L-glutamine. […]
For the measurement of caspase 3 activation, cells were loaded for 15 min at room temperature with 10 μM NucView 488 caspase 3 substrate (Biotium, United States) in HBSS. […] The 488 nm argon laser was used to excite NucView 488 fluorescence, which was measured using a bandpass filter from 510 and 560 nm. […] The number of cells with activated caspase 3 and the number of all visible cells was quantified manually in each field and the percentage of dead cells was calculated by dividing the number of caspase 3-positive cells by the number of all cells counted in one field. The differences between the groups were evaluated using the two-sample t-test. All data were expressed as mean ± SEM. […]

[2] = target: Beta-amyloid 1-40 Abeta 1-40 (Homo sapiens, UniProt P05067); test: tryptophan fluorescence titration
Sequence of Beta-amyloid 1-40 Abeta 1-40 (P05067 1-40): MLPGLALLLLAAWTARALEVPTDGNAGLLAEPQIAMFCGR

Molecule | Kd [2] [nM] | also measured
SPQGGGPWDSVA [Peptide P5, synthetic fragment (65–76) of human RAGE] | – | Kd (Aβ 1–40): No binding; Percentage of cells with activated caspase 3, Mean [1]: 14.25%; Percentage of cells with activated caspase 3, Mean ([1]; SEM): 14.25 ± 3.22%
AWKVLSPQGGGPWDSVA [RAGE fragment P1 (60-76)] | 1390 | –
AWKVLS [RAGE fragment P4 (60-65)] | 2810 | –
AWK [RAGE fragment P3 (60-62)] | 840 | –
KVLSPQGGGPWD [RAGE fragment P6 (62-73)] | 1530 | –
AWKVLSPQGGG [RAGE fragment P2 (60-70)] | 4060 | –
